Laboratory results as given in PMC9478924 (The Journal of Biological Chemistry, 2022).

T1: EVA-P974 (UniProt A0A023FDY8 22-118, biotin on the Avi-tag (Bir-A ligase))
T1 sequence (looked up): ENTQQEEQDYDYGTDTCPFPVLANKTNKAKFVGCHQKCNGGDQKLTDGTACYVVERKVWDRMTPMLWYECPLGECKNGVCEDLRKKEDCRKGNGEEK

T2: EVA-4 (UniProt P0C8E9 24-127, biotin on the Avi-tag (Bir-A ligase))
T2 sequence (looked up): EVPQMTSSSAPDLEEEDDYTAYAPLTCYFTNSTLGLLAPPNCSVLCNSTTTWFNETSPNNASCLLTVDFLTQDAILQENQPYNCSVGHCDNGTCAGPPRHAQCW

T3: EVA-1 (UniProt P0C8E7 21-114, biotin on the Avi-tag (Bir-A ligase))
T3 sequence (looked up): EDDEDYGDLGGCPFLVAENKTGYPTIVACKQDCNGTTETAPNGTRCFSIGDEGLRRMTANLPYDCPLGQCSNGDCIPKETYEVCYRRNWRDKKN

B1: CCL16 (ligand, human, UniProt O15467 24-120, looked up)
chain: QPKVPEWVNTPSTCCLKYYEKVLPRRLVVGYRKALNCHLPAIIFVTKRNREVCTNPNDDWVQEYIKDPNLPLLPTRNLSTVKIITAKNGQPQLLNSQ
B2: CCL8 (ligand, human, UniProt P80075 24-99, looked up)
chain: QPDSVSIPITCCFNVINRKIPIQRLESYTRITNIQCPKEAVIFKTKRGKEVCADPKERWVRDSMKHLDQIFQNLKP
B3: CCL15 (ligand, human, UniProt Q16663 22-113, looked up)
chain: QFTNDAETELMMSKLPLENPVVLNSFHFAADCCTSYISQSIPCSLMKSYFETSSECSKPGVIFLTKKGRQVCAKPSGPGVQDCMKKLKPYSI
B4: CCL17 (ligand, human, UniProt Q92583 24-94, looked up)
chain: ARGTNVGRECCLEYFKGAIPLRKLKTWYQTSEDCSRDAIVFVTVQGRAICSDPNNKRVKNAVKYLQSLERS
B5: CCL22 (ligand, human, UniProt O00626 25-93, looked up)
chain: GPYGANMEDSVCCRDYVRYRLPLRVVKHFYWTSDSCPRPGVVLLTFRDKEICADPRVPWVKMILNKLSQ
B6: CCL5 (ligand, human, UniProt P13501 24-91, looked up)
chain: SPYSSDTTPCCFAYIARPLPRAHIKEYFYTSGKCSNPAVVFVTRKNRQVCANPEKKWVREYINSLEMS
B7: CCL23 (ligand, human, UniProt P55773 22-120, looked up)
chain: RVTKDAETEFMMSKLPLENPVLLDRFHATSADCCISYTPRSIPCSLLESYFETNSECSKPGVIFLTKKGRRFCANPSDKQVQVCMRMLKLDTRIKTRKN
B8: CCL11 (ligand)
chain: not shown
B9: CCL7 (ligand)
chain: not shown
B10: CCL24 (ligand, human, UniProt O00175 27-119, looked up)
chain: VVIPSPCCMFFVSKRIPENRVVSYQLSSRSTCLKAGVIFTTKKGQQFCGDPKQEWVQRYMKNLDAKQKKASPRARAVAVKGPVQRYPGNQTTC
B11: CCL3 (ligand, human, UniProt P10147 24-92, looked up)
chain: SLAADTPTACCFSYTSRQIPQNFIADYFETSSQCSKPGVIFLTKRSRQVCADPSEEWVQKYVSDLELSA
B12: CCL1 (ligand, human, UniProt P22362 24-96, looked up)
chain: KSMQVPFSRCCFSFAEQEIPLRAILCYRNTSSICSNEGLIFKLKRGKEACALDTVGWVQRHRKMLRHCPSKRK
B13: CCL18 (ligand, human, UniProt P55774 21-89, looked up)
chain: AQVGTNKELCCLVYTSWQIPQKFIVDYSETSPQCPKPGVILLTKRGRQICADPNKKWVQKYISDLKLNA
B14: CCL14 (ligand, human, UniProt Q16627 20-93, looked up)
chain: TKTESSSRGPYHPSECCFTYTTYKIPRQRIMDYYETNSQCSKPGIVFITKRGHSVCTNPSDKWVQDYIKDMKEN
B15: CCL13 (ligand)
chain: not shown
B16: CCL4 (ligand, human, UniProt P13236 24-92, looked up)
chain: APMGSDPPTACCFSYTARKLPRNFVVDYYETSSLCSQPAVVFQTKRSKQVCADPSESWVQEYVYDLELN

These binders were tested against T1, EVA-P974 (assay: SPR).

| Kd [nM] | Binder |
| --- | --- |
| < 0.1 | B1 |
| < 0.1 | B2 |

The binders below were run against T2, EVA-4 (assay: SPR).

| Kd [nM] | Binder |
| --- | --- |
| 240 | B3 |
| 283 | B4 |
| 8.5 | B5 |
| 6.1 | B6 |
| 7.4 | B7 |
| 20 | B8 |
| 0.8 | B9 |
| 55 | B10 |
| 0.2 | B11 |
| 376 | B12 |
| 4.1 | B1 |
| 0.4 | B2 |
| 0.4 | B13 |
| 1.1 | B14 |

Target: T1, EVA-P974
Experiment: SPR
Remark: another data set of the same source

| Kd [nM] | Binder |
| --- | --- |
| 0.5 | B15 |
| 23 | B4 |
| 1.8 | B5 |
| 0.3 | B8 |
| 4.4 | B9 |
| 0.6 | B11 |
| 15 | B12 |
| 1.8 | B16 |
| 0.1 | B1 |
| 0.03 | B2 |
| 0.6 | B13 |
| 1.8 | B14 |

These binders were tested against T3, EVA-1 (assay: SPR).

| Kd [nM] | Binder |
| --- | --- |
| 0.21 | B11 |
| 60.7 | B16 |
| 192 | B13 |
| 92 | B14 |
